According to FireProtDB (doi:10.1016/j.bbapap.2014.10.010):

B1: Alanine--glyoxylate aminotransferase, P21549 (parent)
chain: MASHKLLVTPPKALLKPLSIPNQLLLGPGPSNLPPRIMAAGGLQMIGSMSKDMYQIMDEIKEGIQYVFQTRNPLTLVISGSGHCALEAALVNVLEPGDSFLVGANGIWGQRAVDIGERIGARVHPMTKDPGGHYTLQEVEEGLAQHKPVLLFLTHGESSTGVLQPLDGFGELCHRYKCLLLVDSVASLGGTPLYMDRQGIDILYSGSQKALNAPPGTSLISFSDKAKKKMYSRKTKPFSFYLDIKWLANFWGCDDQPRMYHHTIPVISLYSLRESLALIAEQGLENSWRQHREAAAYLHGRLQALGLQLFVKDPALRLPTVTTVAVPAGYDWRDIVSYVIDHFDIEIMGGLGPSTGKVLRIGLLGCNATRENVDRVTEALRAALQHCPKKKL

Variants of: B1
Conditions: Homo sapiens; pH 7.4; Thermal; DSC; Hepes 20 mM; NaCl 200 mM; transition: 2; reversible: No; structure 1H0C; whole UniProt chain shown

Variant | Tm | change of melting temperature, mutant - wild type (higher = more stable) | unfolding enthalpy (calorimetric)
P11L | 73.8 °C | 3.8 °C | 399 kcal/mol
P11L I340M | 76.6 °C | 6.6 °C | 375 kcal/mol
P11L I340M A295T | 77.5 °C | 7.5 °C | 500 kcal/mol
P11L I340M G170R | 75.5 °C | 5.5 °C | 459 kcal/mol
P11L I340M H83R | 58.2 °C | -11.8 °C | 235 kcal/mol
P11L I340M I244T | 75.8 °C | 5.8 °C | 402 kcal/mol
Q23R | 84.5 °C | 14.5 °C | 475 kcal/mol
Q23R S48H D52E I340M | 92 °C | 22 °C | 609 kcal/mol
Q23R S48H D52E V113A I340M | 93.7 °C | 23.7 °C | 638 kcal/mol
S48H | 85.5 °C | 15.5 °C | 520 kcal/mol
S48H D52E I340M | 89.5 °C | 19.5 °C | 315 kcal/mol
S48H D52E V113A I340M | 91 °C | 21 °C | 613 kcal/mol
S48H I340M | 88 °C | 18 °C | 599 kcal/mol
S50H | 67.1 °C | -2.9 °C | 357 kcal/mol
D52E | 84.4 °C | 14.4 °C | 544 kcal/mol
D52E I340M | 86.9 °C | 16.9 °C | 573 kcal/mol
V113A | 83.2 °C | 13.2 °C | 502 kcal/mol
I340M | 84.1 °C | 14.1 °C | 530 kcal/mol
